Substitutions are numbered along the chain they refer to.
B1: TPP-1374, Fab fragment of BMA031 (V36) (Fab, V domains shown)
VH: EVQLVQSGAEVKKPGASVKVSCKASGYKFTSYVMHWVRQAPGQGLEWMGYINPYNDVTKYAEKFQGRVTLTSDTSTSTAYMELSSLRSEDTAVHYCARGSYYDYEGFVYWGQGTLVTVSS
VL: QIQMTQSPSSLSASVGDRVTITCSATSSVSYMHWYQQKPGKAPKRWIYDTSKLASGVPSRFSGSGSGTDYTLTISSLQPEDAATYYCQQWSSNPLTFGGGTKVEIKR
B2: TPP-1375 Fab fragment (Fab, V domains shown)
VH: B1 VH with T30R
VL: B1 VL

Legend:
[1] = target: α/β TCR/CD3 complex on Jurkat, Clone E6-1 cells (human) (UniProt P07766); assay: flow cytometry on Jurkat Clone E6-1 cells, Fab titration 10 µg/ml to 10 ng/ml; AUC of MFI vs log concentration; the reference itself, set to zero
[2] = target: α/β TCR/CD3 complex on Jurkat, Clone E6-1 cells (human) (UniProt P07766); assay: flow cytometry on Jurkat Clone E6-1 cells, Fab titration 10 µg/ml to 10 ng/ml; EC50 of MFI, fold decrease vs TPP-1374
[3] = target: α/β TCR/CD3 complex on Jurkat, Clone E6-1 cells (human) (UniProt P07766); assay: flow cytometry on Jurkat Clone E6-1 cells, Fab titration 10 µg/ml to 10 ng/ml; AUC of MFI vs log concentration, gain vs TPP-1374

Sequence of UniProt P07766 (P07766 23-207, chain 1 of 4): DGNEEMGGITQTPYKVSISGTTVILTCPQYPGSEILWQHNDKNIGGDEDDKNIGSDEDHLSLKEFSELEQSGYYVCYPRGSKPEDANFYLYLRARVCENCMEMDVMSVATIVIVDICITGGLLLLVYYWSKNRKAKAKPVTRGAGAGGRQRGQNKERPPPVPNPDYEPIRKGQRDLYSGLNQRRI
Sequence of UniProt P07766 (P09693 23-182, chain 2 of 4, further chain): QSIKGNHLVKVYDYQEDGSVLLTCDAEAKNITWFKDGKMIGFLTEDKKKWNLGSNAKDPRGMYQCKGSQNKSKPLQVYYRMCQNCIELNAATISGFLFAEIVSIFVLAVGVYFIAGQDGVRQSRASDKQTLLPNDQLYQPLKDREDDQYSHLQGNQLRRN
Sequence of UniProt P07766 (P04234 22-171, chain 3 of 4, further chain): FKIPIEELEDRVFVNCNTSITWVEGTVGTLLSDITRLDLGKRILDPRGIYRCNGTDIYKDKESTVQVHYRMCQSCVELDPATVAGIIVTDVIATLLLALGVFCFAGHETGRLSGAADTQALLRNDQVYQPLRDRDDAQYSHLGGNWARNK
Sequence of UniProt P07766 (P20963 22-164, chain 4 of 4, further chain): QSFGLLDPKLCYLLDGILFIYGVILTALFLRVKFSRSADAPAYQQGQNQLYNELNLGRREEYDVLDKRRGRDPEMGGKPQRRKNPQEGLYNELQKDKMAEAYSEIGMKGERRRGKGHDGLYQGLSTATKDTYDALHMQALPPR

Binder	% gain in binding AUC [1] [%]	fold decrease in EC50 [2] [fold]	% gain in binding AUC [3] [%]
B1	0	–	–
B2	–	2.1	87
